“And” between values parts separate entries of the source, which are not always exact repeats. Identical values can stand only once.

Common to all, as to assay: cell-based or functional assay
The target in assay [1] is human IL-25 (human) (UniProt Q9H293).
In assay [2] the target is human IL-17RB (human) (UniProt Q9NRM6).
The target of assay [3] is human IL-17RA (human) (UniProt Q96F46).

human IL-25 (human), sequence (Q9H293 33-177 limits assumed): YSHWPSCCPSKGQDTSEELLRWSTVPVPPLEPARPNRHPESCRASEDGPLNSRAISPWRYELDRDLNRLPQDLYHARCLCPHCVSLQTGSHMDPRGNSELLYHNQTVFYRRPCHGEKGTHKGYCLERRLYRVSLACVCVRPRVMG
human IL-17RB (human), sequence (Q9NRM6 18-502): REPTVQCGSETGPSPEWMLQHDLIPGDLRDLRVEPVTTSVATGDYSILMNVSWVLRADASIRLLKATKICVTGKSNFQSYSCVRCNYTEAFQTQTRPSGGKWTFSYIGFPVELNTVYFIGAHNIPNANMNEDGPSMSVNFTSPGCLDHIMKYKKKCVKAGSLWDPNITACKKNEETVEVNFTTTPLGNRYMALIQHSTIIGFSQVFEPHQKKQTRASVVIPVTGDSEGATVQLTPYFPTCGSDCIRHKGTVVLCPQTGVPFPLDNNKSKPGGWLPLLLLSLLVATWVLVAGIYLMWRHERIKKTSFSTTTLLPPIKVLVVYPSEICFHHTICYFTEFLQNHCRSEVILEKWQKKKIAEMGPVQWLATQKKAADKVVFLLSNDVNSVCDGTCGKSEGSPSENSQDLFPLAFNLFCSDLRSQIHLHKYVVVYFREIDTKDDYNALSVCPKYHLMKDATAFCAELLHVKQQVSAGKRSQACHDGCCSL

Take “HuIL-17RB: HIS (extracellular region of human IL-17RB fused to poly HIS) (from UniProt Q9NRM6 18-292) (receptor)”: the % Inhibition of IL-5 production, TSLP treated human PBMC + IL-2 + IL-25; inhibitor 10 micrograms/mL in assay [1] was 67%.

As for “MAB1207: anti-HuIL-17RB MuIgG2b (R&D Systems) (antibody)”, the % Inhibition of IL-5 production, TSLP treated human PBMC + IL-2 + IL-25; inhibitor 10 micrograms/mL in assay [2] stood at 13%.

Regarding “MAB1771: anti-HuIL-17RA MuIgG2b (R&D Systems) (antibody)”, the % Inhibition of IL-5 production, TSLP treated human PBMC + IL-2 + IL-25; inhibitor 10 micrograms/mL in assay [3] was 24% and 33%.
